Experimental data taken from patent publication US7429564B2, “Oral insulin therapy” (Emisphere Technologies, Inc., priority 2002, dated 2008).

Tests used:
[1] = Example 5: plasma insulin pharmacokinetics, healthy male volunteers; conditions: human, in vivo
Method: In Group 1, there were four escalating single doses of 4-CNAB (400, 800, 1400 and 2000 mg) and each subject received either all four of these escalating doses or three escalating single doses and one dose of placebo. […] In Group 3 there were three escalating oral doses of Insulin/4-CNAB (100 Units/300 mg, 100 Units/450 mg and 150 Units/100 mg) and one SC dose of 150 Units of insulin. Each subject received either all four of these treatments or three of these treatments and one placebo treatment. For all groups, there was a washout period of at least 72 hours between treatment periods.
(§1) For insulin/4-CNAB treatment Groups 2 and 3, subjects' blood samples (1 drop per sample) were drawn at 15 minutes before dosing, and at 5, 10, 15, 20, 25, 30, 35, 40, and 50 minutes and at 1, 1.25, 1.5, 1.75, 2, 2.5, 3, 4, 6, 8 and 12 hours post-dose (21 samples per treatment for Insulin/4-CNAB dosing groups) for plasma glucose, insulin and C-peptide measurements. For the 4-CNAB alone treatment Group 1, blood samples were collected before dosing (−15 minutes), and at 30 minutes and at 2 hr post-dose for blood glucose measurements. For the insulin alone control group (minimum 3 subjects), blood samples (3 mL in sodium heparin tube) were drawn at 15 minutes before dosing, and at 10, 20, 30, 40, 50 minutes and 1, 1.25, 2, 2.5, 3 and 6 hr post-dose (12 samples per treatment). The blood samples for glucose were assayed in real time using a Glucometer®. These measurements were used for detection of onset of hypoglycemia, so rescue action could be taken where necessary. Plasma glucose, insulin and C-peptide measurements were done according to standard procedures.
(§2) On the basis of plasma concentrations of 4-CNAB and insulin, PK analysis was performed using non-compartmental PK methods as implemented in WinNonlin™ Professional version 3.2. The profiles for insulin and C-peptide corrected insulin were evaluated up to 6 hours as food was given 6 hours following insulin treatment. The following parameters were derived for 4-CNAB: Cmax, tmax, AUC(0-t), AUC(0-inf), AUC% Extrap, Kel, t1/2, CL/F, Vd/F, MRT(0-t), MRT(0-inf) and Frel. The following parameters were derived for insulin and C-peptide corrected insulin: Cmax, tmax, AUC(0-2), AUC(0-6), AUC(0-t) and concentrations (C^b) and corresponding time (t^b) immediately prior to intervention for hypoglycemia.
The plasma concentration-time profiles for 4-CNAB were evaluated in those subjects who received 4-CNAB or Insulin/4-CNAB treatments. Insulin, C-peptide and glucose concentration-time profiles following administration of all treatments were evaluated for the 20 subjects in Groups 2 and 3. Pharmacokinetic (“PK”) parameters for 4-CNAB, insulin and C-peptide corrected insulin, and pharmacodynamic (“PD”) parameters for glucose concentration change from baseline, respectively were calculated for subjects whether they required hypoglycemic rescue or not. Concentrations from subjects who required food/drink due to hypoglycemia were excluded from descriptive statistics.

[2] = Example 5: C-peptide corrected insulin pharmacokinetics; parameters: species or system human; conditions: in vivo; for C-peptide corrected insulin AUC(0-2) / C-peptide corrected insulin AUC(0-6) / C-peptide corrected insulin tmax, median: human
Method: as §2
For the PK analysis of insulin, analysis was conducted for both measured insulin and C-peptide corrected insulin concentrations. This was done using concentrations of the precursor C-peptide and the following equation: Corrected Insulin Concentration=Insulin Concentration−(Baseline Ratio×C-peptide) where

[3] = tested on: plasma C-peptide; experiment: Example 5: plasma C-peptide; assay type: in vivo, human
Method: as §1, with “Plasma glucose, insulin and C-peptide measurements were done according to standard procedures.” left out
Plasma C-peptide was measured using a DELFIA C-peptide kit, based on a solid phase, two-site fluoroimmunometric assay, which used the direct sandwich technique in which two monoclonal antibodies are directed against antigenic determinants on the C-peptide molecule. […] The fluorescence is directly proportional to the concentration of C-peptide in the sample.

For “SC insulin: human regular insulin injected subcutaneously (Humulin R or equivalent; Calbiochem insulin in the rat studies)”, the Cmax ([1]; sc) was 0.375 nM, the “Insulin AUC(0-2)” value ([1]; sc) was 414.3 ± 181.5 pmol·h/L and the “Insulin AUC(0-6)” value ([1]; sc) was 1228.5 ± 378.1 pmol·h/L. The “Insulin C^b (immediately prior to recovery from hypoglycemia)” value ([1]; sc) was 168.3 ± 77.5 pmol/L, the “Insulin Cmax” value ([1]; sc) was 54.5 ± 25.6 uU/ml and the “Insulin t^b, median (range)” value ([1]; sc) was 1.00 (0.75-1.25) h. The Insulin tmax ([1]; sc) was 1.75 h, the “Insulin tmax, median (range)” value ([1]; sc) was 1.88 (1.58-4.00) h and the “C-peptide corrected insulin AUC(0-2)” value ([2]; sc) was 355.2 ± 170.2 pmol·h/L. The “C-peptide corrected insulin AUC(0-6)” value ([2]; sc) was 942.8 ± 333.0 pmol·h/L, the “C-peptide corrected insulin tmax, median” value ([2]; sc) was 1.88 h and the “C-peptide corrected insulin C^b” value ([2]; sc) was 159.5 ± 75.6 pmol/L. For the same substance, the “C-peptide corrected insulin t^b, median” value ([2]; sc) was 1.00 h and the “% Max C-peptide Reduction” value ([3]; 10 Units SC, carrier 0, unaudited data) was 54.3 ± 9.8%.
For “oral insulin alone: recombinant human zinc insulin given orally without delivery agent”, the Cmax ([1]; po) was 0.0384 nM, the “Insulin AUC(0-2)” value ([1]; po) was 51.8 ± 15.5 pmol·h/L and the “Insulin tmax, median” value ([1]; po) was 0.43 h. The “C-peptide corrected insulin AUC(0-2)” value ([2]; po) was 10.8 ± 16.6 pmol·h/L, the “C-peptide corrected insulin AUC(0-6)” value ([2]; po) was 21.5 ± 42.0 pmol·h/L and the “C-peptide corrected insulin tmax, median” value ([2]; po) was 2.00 h. For the same substance, the “Change in C-peptide concentrations from baseline” value ([3]; 150 Units oral insulin alone) was “little change in C-peptide concentrations from baseline”.
